Assay results from patent US20140087995A1 (published 2014).
Numbered stars: 1 amine (or outer) side, 2 acyl side, 3 side chain; on linkers, the order of the positions; unused ones are H or OH. Bridge positions count the residues as written; N and C are the ends. Side chains are listed from the residue outwards. Ends that are not written are not given here. * marks the point of attachment. C20 diacid = O=C(O)CCCCCCCCCCCCCCCCCCC(=O)*; γGlu = O=C(O)[C@H](CCC(=O)[*:2])N[*:1]

Key:
rat calcitonin receptor [1] = target: T1, rat calcitonin receptor (rat, UniProt P32214 25-516); assay: SPA competition binding, displacement of 125I-calcitonin from membranes of BHK tk'ts 13 cells transfected with rat calcitonin receptor (Assay VIII)
T1 construct: whole, on cells; Used as membranes prepared from the transfected cells (Assay VIII); also called rCTR; rat calcitonin (a) receptor
T1 sequence (looked up): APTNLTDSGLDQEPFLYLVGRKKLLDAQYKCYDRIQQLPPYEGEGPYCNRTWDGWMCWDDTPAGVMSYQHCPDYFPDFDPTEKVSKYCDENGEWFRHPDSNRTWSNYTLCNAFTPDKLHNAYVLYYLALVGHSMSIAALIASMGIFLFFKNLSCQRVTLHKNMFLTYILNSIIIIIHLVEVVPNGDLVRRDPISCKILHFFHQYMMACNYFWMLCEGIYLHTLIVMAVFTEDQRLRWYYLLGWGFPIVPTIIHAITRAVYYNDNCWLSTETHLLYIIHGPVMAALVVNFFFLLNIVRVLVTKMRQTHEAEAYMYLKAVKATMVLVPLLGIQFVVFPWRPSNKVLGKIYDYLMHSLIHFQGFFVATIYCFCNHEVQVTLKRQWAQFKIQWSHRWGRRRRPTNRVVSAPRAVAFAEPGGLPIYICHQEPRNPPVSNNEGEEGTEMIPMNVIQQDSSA

[2] = target: T2, rat amylin receptor (rat calcitonin receptor + rat RAMP 3) (rat, UniProt P32214 25-516; Q9JJ73 23-147); assay: SPA competition binding, displacement of 125I-rat amylin from membranes of BHK tk'ts 13 cells transfected with rat calcitonin receptor + rat RAMP 3 (Assay VI)
T2 construct: whole, on cells; Used as membranes prepared from the transfected cells (Assay VI); also called rAmylin-R; rat amylin 3(a) receptor
T2 sequence (looked up) 1: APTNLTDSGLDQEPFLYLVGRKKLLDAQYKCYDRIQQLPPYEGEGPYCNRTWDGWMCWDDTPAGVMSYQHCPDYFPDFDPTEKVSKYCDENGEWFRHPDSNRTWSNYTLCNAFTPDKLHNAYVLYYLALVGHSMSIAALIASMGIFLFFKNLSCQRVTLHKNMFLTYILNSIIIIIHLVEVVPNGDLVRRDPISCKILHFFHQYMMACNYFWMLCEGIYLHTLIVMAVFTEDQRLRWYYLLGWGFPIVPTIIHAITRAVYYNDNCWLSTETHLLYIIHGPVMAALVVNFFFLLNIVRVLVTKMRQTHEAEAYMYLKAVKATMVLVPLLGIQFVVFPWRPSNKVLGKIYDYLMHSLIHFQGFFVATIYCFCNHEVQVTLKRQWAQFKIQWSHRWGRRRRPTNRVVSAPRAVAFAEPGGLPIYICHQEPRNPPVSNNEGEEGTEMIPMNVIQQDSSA
T2 sequence (looked up) 2: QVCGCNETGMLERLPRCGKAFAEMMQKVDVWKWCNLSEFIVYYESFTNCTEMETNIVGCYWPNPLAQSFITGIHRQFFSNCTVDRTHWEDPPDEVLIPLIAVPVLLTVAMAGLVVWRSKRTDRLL

[3] = target: T3, human calcitonin receptor (human, UniProt P30988 25-474); assay: ratio of IC50 on human calcitonin receptor (Assay VII) to IC50 on human amylin receptor (Assay V)
T3 construct: whole, on cells; Used as membranes prepared from the transfected cells (Assay VII); also called hCTR; hCT
T3 sequence (looked up): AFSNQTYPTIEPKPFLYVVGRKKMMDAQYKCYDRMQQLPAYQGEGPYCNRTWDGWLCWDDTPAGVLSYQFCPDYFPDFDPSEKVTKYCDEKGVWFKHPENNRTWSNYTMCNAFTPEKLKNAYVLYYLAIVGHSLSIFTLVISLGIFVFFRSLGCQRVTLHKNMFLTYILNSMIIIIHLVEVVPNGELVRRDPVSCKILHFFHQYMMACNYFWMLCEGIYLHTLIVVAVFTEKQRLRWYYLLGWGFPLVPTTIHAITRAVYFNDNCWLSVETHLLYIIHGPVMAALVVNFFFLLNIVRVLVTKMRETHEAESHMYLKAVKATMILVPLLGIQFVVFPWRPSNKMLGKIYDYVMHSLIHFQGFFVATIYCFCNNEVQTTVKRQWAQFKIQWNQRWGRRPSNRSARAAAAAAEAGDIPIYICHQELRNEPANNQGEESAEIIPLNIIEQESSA
Procedure: The resulting pellet was resuspended, homogenized and centrifuged (20.000 rpm, 15 min) in a buffer containing 20 mM Na-HEPES and 0.1 mM EDTA (pH 7.4, buffer 2). The resulting pellet was resuspended in buffer 2 and protein concentration was measured (BCA protein Assay, Pierce). The homogenate was kept cold during the whole procedure. The membranes were kept at −80° C. until use. The assay was performed in a 384 well Optiplate (PerkinElmer) in a total volume of 40 ul. Membranes were mixed with SPA beads. Final concentration of membranes 35 ng/μL final and SPA beads was 0.05 mg/well. Test-compounds were dissolved in DMSO and further diluted in assay buffer (50 mM Hepes, pH 7.4, 1 mM CaCl2, 5 mM MgCl₂, 0.1% OA and 0.02% Tween20). […] The final mixture was incubated with shaking at 400 rpm for 120 min at 25° C. prior to centrifugation (1500 rpm, 10 min). Samples were analyzed on TopCounter™ (Packard). The IC₅₀ was calculated using (one site binding competition analysis) GraphPad Prism5 as a measure of receptor affinity.
Membranes were prepared in the following way; the cells were rinsed with PBS and incubated with Versene for approximately 5 min before harvesting. The cells were flushed with PBS and the cell-suspension was centrifuged for 5 min at 1000 rpm. Cells were homogenized (Ultrathurrax) in a buffer containing 20 mM Na-HEPES and 10 mM EDTA (pH 7.4) and centrifuged at 20.000 rpm for 15 min. The resulting pellet was resuspended, homogenized and centrifuged (20.000 rpm, 15 min) in a buffer containing 20 mM Na-HEPES and 0.1 mM EDTA (pH 7.4, buffer 2). The resulting pellet was resuspended in buffer 2 and protein concentration was measured (BCA protein Assay, Pierce). The homogenate was kept cold during the whole procedure. The membranes were kept at −80° C. until use. Assay was performed in a 384 well Optiplate (PerkinElmer) in a total volume of 40 ul. Membranes were mixed with SPA beads.

rat calcitonin receptor [4] = target: T1, rat calcitonin receptor; assay: ratio of IC50 on rat calcitonin receptor (Assay VIII) to IC50 on rat amylin receptor (Assay VI)

B1: N^ε1-[(4S)-4-carboxy-4-(19-carboxynonadecanoylamino)butanoyl]-[Asp14,Arg17,Pro21,Pro27,Pro34,Arg35]-h-amylin (peptide)
peptide: K([γGlu-C20 diacid])CNTATCATQRLADFLRHSSPNFGAIPSSTNVGPRTY-NH2
modifications: disulfide 2-7; N-terminus assumed
SMILES: CC[C@H](C)[C@H](NC(=O)[C@H](C)NC(=O)CNC(=O)[C@H](Cc1ccccc1)NC(=O)[C@H](CC(N)=O)NC(=O)[C@@H]1CCCN1C(=O)[C@H](CO)NC(=O)[C@H](CO)NC(=O)[C@H](Cc1c[nH]cn1)NC(=O)[C@H](CCCNC(=N)N)NC(=O)[C@H](CC(C)C)NC(=O)[C@H](Cc1ccccc1)NC(=O)[C@H](CC(=O)O)NC(=O)[C@H](C)NC(=O)[C@H](CC(C)C)NC(=O)[C@H](CCCNC(=N)N)NC(=O)[C@H](CCC(N)=O)NC(=O)[C@@H](NC(=O)[C@H](C)NC(=O)[C@@H]1CSSC[C@H](NC(=O)[C@@H](N)CCCCNC(=O)CC[C@H](NC(=O)CCCCCCCCCCCCCCCCCCC(=O)O)C(=O)O)C(=O)N[C@@H](CC(N)=O)C(=O)N[C@@H]([C@@H](C)O)C(=O)N[C@@H](C)C(=O)N[C@@H]([C@@H](C)O)C(=O)N1)[C@@H](C)O)C(=O)N1CCC[C@H]1C(=O)N[C@@H](CO)C(=O)N[C@@H](CO)C(=O)N[C@H](C(=O)N[C@@H](CC(N)=O)C(=O)N[C@H](C(=O)NCC(=O)N1CCC[C@H]1C(=O)N[C@@H](CCCNC(=N)N)C(=O)N[C@H](C(=O)N[C@@H](Cc1ccc(O)cc1)C(N)=O)[C@@H](C)O)C(C)C)[C@@H](C)O
notes: not restated for each compound
Rat calcitonin receptor [1]
  IC50: 58.5 nM
[2]
  IC50: 0.504 nM
[3]
  Ratio hCT/hAmylin binding: 151
Rat calcitonin receptor [4]
  Ratio rCT/rAmylin binding: 116

B2: N^ε1-[(4S)-4-carboxy-4-(19-carboxynonadecanoylamino)butanoyl]-[Glu14,Arg17,Pro21,Pro27,Arg34,Glu35]-h-amylin (peptide)
peptide: K([γGlu-C20 diacid])CNTATCATQRLAEFLRHSSPNFGAIPSSTNVGRETY-NH2
modifications: disulfide 2-7; N-terminus assumed
SMILES: CC[C@H](C)[C@H](NC(=O)[C@H](C)NC(=O)CNC(=O)[C@H](Cc1ccccc1)NC(=O)[C@H](CC(N)=O)NC(=O)[C@@H]1CCCN1C(=O)[C@H](CO)NC(=O)[C@H](CO)NC(=O)[C@H](Cc1c[nH]cn1)NC(=O)[C@H](CCCNC(=N)N)NC(=O)[C@H](CC(C)C)NC(=O)[C@H](Cc1ccccc1)NC(=O)[C@H](CCC(=O)O)NC(=O)[C@H](C)NC(=O)[C@H](CC(C)C)NC(=O)[C@H](CCCNC(=N)N)NC(=O)[C@H](CCC(N)=O)NC(=O)[C@@H](NC(=O)[C@H](C)NC(=O)[C@@H]1CSSC[C@H](NC(=O)[C@@H](N)CCCCNC(=O)CC[C@H](NC(=O)CCCCCCCCCCCCCCCCCCC(=O)O)C(=O)O)C(=O)N[C@@H](CC(N)=O)C(=O)N[C@@H]([C@@H](C)O)C(=O)N[C@@H](C)C(=O)N[C@@H]([C@@H](C)O)C(=O)N1)[C@@H](C)O)C(=O)N1CCC[C@H]1C(=O)N[C@@H](CO)C(=O)N[C@@H](CO)C(=O)N[C@H](C(=O)N[C@@H](CC(N)=O)C(=O)N[C@H](C(=O)NCC(=O)N[C@@H](CCCNC(=N)N)C(=O)N[C@@H](CCC(=O)O)C(=O)N[C@H](C(=O)N[C@@H](Cc1ccc(O)cc1)C(N)=O)[C@@H](C)O)C(C)C)[C@@H](C)O
notes: as for B1
Rat calcitonin receptor [1]
  IC50: 86.1 nM
[2]
  IC50: 1.06 nM
[3]
  Ratio hCT/hAmylin binding: 28.5
Rat calcitonin receptor [4]
  Ratio rCT/rAmylin binding: 81.1
